Experimental data published in article PMC10716780, “The multistep oxidation of cholesterol to pregnenolone by human cytochrome P450 11A1 is highly processive” (The Journal of Biological Chemistry, 2023).

How the values were obtained:
human P450 11A1 [1] = molecular target: T1, human P450 11A1 (Homo sapiens, UniProt P05108); experiment: Steady-state kinetic assay with [1,2-3H]-cholesterol (radio-HPLC); type: biochemical; design: M A S T R S P R P F N E I P S P G D N; Met-Ala (N-terminal start residues in place of the transit peptide and Ile40) (N); made in house; host or cells: E. coli (P450 11A1 in C41(DE3); Adx and AdR in E. coli); conditions: ^3H-cholesterol substrate, triplicate
T1 sequence (P05108 41-521 limits assumed): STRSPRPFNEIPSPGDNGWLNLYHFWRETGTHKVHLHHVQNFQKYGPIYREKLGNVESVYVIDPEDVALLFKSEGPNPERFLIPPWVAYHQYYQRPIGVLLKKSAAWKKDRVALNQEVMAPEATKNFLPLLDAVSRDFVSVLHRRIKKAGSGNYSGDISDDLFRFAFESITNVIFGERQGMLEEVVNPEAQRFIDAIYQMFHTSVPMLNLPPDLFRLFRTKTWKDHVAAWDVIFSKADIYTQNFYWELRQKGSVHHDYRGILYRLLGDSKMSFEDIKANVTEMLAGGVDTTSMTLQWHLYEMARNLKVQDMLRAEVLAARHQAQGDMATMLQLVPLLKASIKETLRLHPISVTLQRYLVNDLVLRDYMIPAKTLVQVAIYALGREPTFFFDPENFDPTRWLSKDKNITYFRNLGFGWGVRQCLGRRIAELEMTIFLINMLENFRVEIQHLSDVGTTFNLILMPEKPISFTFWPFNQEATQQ
T1 sequence (P00257 59-186 partner): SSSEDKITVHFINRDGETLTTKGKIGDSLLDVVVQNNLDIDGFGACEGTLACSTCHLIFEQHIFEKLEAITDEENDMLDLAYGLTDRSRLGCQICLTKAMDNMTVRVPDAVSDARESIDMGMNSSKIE
Method: Samples (held at 4 °C) were injected (50 μl) using a Agilent 1100 Series HPLC system on a NovaPak (Waters) octadecylsilane (C18) 3.9 mm × 100 mm (4 μm) column (held at 25 °C) with a flow rate of 1.0 ml min^−1 using a gradient mobile phase of (A) H2O and (B) CH3CN as follows (all in % B, v/v): 0 min, 70%; 10 min, 100%; 35.5 min, 100%; 37 min, 30%; and 40 min, 70%). The flow rate was increased to 1.5 ml min^−1 (from the 10 min to 10.5 min interval) to decrease the retention of cholesterol and was later returned to 1.0 ml min^−1 (from the 35 min to 35.5 min interval) to prepare for the next injection. The column eluate was mixed (1:2, v/v) with FlowLogic U scintillation cocktail (LabLogic) and radioactivity (^3H) was detected using a β-RAM Model 5 radioflow detector (IN/US, LabLogic). Analytes were quantitated on the basis of their ^3H peak areas relative to the summed radioactivity of the four compounds of interest.
Figure S13. Steady-state kinetic assay of P450 11A1 with [1,2-^3H]-cholesterol. The enzyme reaction was performed in triplicate as described for the steady-state LC-MS assays, but with the use of ^3H-cholesterol (2 mCi mmol^-1) as the substrate. Product (^3H-pregnenolone) was detected by radio-HPLC as described (Experimental Methods). The highest rate measured was 6.7 ± 0.4 nmol product min^-1 (nmol P450)^-1.

[2] = molecular target: T2, human cytochrome P450 11A1 (human, UniProt P05108 40-521); experiment: other fluorescence titration; P450 11A1 (0-0.4 uM) titrated into Alexa 488-Adx (50 nM) in 100 mM potassium phosphate pH 7.4; quenching of fluorescence (excitation 493 nm, emission 500-600 nm); quadratic fit; without cholesterol; conditions: both partners purified
T2 construct: cytochrome P450 11A1, human, recombinant, codon-optimized insert in pET23C(+); In one titration it was added as a preformed 1:1 complex with cholesterol; also called CYP11A1; P450scc; source: E. coli C41(DE3) with GroES/GroEL, purified (CHAPS solubilisation, Ni-NTA, dialysis)
T2 sequence (looked up): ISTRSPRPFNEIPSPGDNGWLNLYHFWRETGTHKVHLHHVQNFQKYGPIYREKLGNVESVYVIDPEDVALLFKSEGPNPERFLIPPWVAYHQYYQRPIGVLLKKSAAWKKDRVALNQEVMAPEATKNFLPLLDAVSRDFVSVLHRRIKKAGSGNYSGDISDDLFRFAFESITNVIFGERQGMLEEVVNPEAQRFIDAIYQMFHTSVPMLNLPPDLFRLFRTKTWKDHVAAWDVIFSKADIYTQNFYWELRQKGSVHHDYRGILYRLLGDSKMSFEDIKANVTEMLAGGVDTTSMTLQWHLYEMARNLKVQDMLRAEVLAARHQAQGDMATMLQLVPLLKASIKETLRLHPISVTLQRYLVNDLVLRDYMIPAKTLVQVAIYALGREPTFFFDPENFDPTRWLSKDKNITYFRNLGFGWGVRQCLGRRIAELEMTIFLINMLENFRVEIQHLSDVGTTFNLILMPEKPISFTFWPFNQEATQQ

[3] = molecular target: T2, human cytochrome P450 11A1; experiment: other fluorescence titration; preformed 1:1 complex of P450 11A1 and cholesterol titrated into Alexa 488-Adx (50 nM) in 100 mM potassium phosphate pH 7.4; quenching of fluorescence (excitation 493 nm, emission 500-600 nm); quadratic fit; with cholesterol (equimolar to P450); conditions: both partners purified
human P450 11A1 [4] = test system: human P450 11A1; design: method as in PMID 33271253; conditions: surface plasmon resonance, human ref 46; read-out: Kd of P450 11A1-Adx complex, without sterol; cited from earlier work
bovine P450 11A1 = test system: bovine P450 11A1; design: method as in PMID 15181009; conditions: surface plasmon resonance, bovine ref 47; read-out: Kd of P450 11A1-Adx complex, without sterol; cited from earlier work

## [3H]C1C([3H])[C@@]2(C)C(=CC[C@H]3[C@@H]4CC[C@H]([C@H](C)CCCC(C)C)[C@@]4(C)CC[C@@H]32)C[C@H]1O (some centres unmarked) [[1,2-^3H]-cholesterol, [1,2-^3H]-Cholesterol]
Human P450 11A1 [1]
  highest rate measured: 6.7 ± 0.4 nmol product min^-1 (nmol P450)^-1

B1: Alexa Fluor 488-labeled adrenodoxin (natural protein, bovine, UniProt P00257 59-186, looked up)
chain: SSSEDKITVHFINRDGETLTTKGKIGDSLLDVVVQNNLDIDGFGACEGTLACSTCHLIFEQHIFEKLEAITDEENDMLDLAYGLTDRSRLGCQICLTKAMDNMTVRVPDAVSDARESIDMGMNSSKIE
modifications: Alexa Fluor 488 label (site not stated)
notes: also called Alexa 488-Adx; Adx
[2]
  Kd: 38 nM
[3]
  Kd: 8.2 nM

B2: Adx: adrenodoxin, soluble iron-sulfur electron donor protein (recombinant bovine); used fluorescently labeled as Alexa 488-Adx (protein)
chain: SSSEDKITVHFINRDGETLTTKGKIGDSLLDVVVQNNLDIDGFGACEGTLACSTCHLIFEQHIFEKLEAITDEENDMLDLAYGLTDRSRLGCQICLTKAMDNMTVRVPDAVSDARESIDMGMNSSKIE
modifications: Alexa Fluor 488 label (site not stated)
notes: adrenodoxin, soluble iron-sulfur electron donor protein (recombinant bovine); used fluorescently labeled as Alexa 488-Adx
Human P450 11A1 [4]
  Kd: 24 nM
Bovine P450 11A1
  Kd: 13.4 nM
